Reference: patent US20040018198A1 (Amgen, published 2004)
Substitutions are numbered along the chain they refer to.

B1: AB-MN-21.1.1 (antibody, human IgG1, V domains shown)
VH: QVQLQESGPGLVKPSETLSLTCTVSGGSISSYYWSWIRQPPGKGLEWIGYIYYSGSTNYNPSLKSRVTISVDTSKNQFSLKLSSVTAADTAVYYCARRGYDILTGYDYFDYWGQGTLVTVSS
VL: DIQMTQSPSSVSASVGDRVTITCRASQGISIWLTWYQQKPGKAPKLLIYAASSLQSGVPSRFSGSGSGTDFTLTISSLQPEDFATYYCQQANSFPITFGQGTRLEIK
notes: also called 21.1.1 a; AX014H21-1-1
B2: AB-MN-21.14.1 (antibody, human IgG1, V domains shown)
VH: B1 VH with I102F
VL: B1 VL with I31S, T34A, Y36F
notes: also called 21.14.1 j; AX014H21-14-1
B3: AB-MN-21.10.1 (antibody, human IgG1, V domains shown)
VH: QLEQSGPGLVKPSETLSLTCTVSDGSISSSSYYWGWIRQPPGKGLEWIGSIYYSGSTYYNPSLKSRVTISVDTSKNQFSLKLSSVTAADTAVYYCARHGSFFDYWGQGTLVTVSS
VL: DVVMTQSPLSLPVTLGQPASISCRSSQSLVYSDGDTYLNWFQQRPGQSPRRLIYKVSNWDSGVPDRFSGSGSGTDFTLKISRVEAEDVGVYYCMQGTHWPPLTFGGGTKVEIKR
notes: also called 21.10.1 g; AX014H21-10-1
B4: AB-MN-21.17.1 (antibody, human IgG1, V domains shown)
VH: QVQLQESGPGLVKPSETLSLTCTVSGGSISSYYWSWIRQPAGKGLEWIGRIYTSGSTNYNPSLKSRVTMSVDTSKNQFSLKLSSVTAADTAVYYCARDGQWLEDYGMDVWGQGTTVTV
VL: EIVLTQSPGTLSLSPGERATLSCWASQSVFSNYLAWYQQKPGQAPRLLIYGASSRATGIPDRFSGSGSGTDFPLTISRLEPEDFAVYYCQQYGSSPLTFGGGTKVEIK
notes: also called 21.17.1 I; AX014H21-17-1
B5: AB-MN-21.6.1 (antibody, human IgG1, V domains shown)
VH: QVQLQESGPGLVKPSQTLSLTCTVSGGSISSGGYYWSWIRQHPGKGLEWIGYIYYSGSTYYNPSLKSRVTISVDTSKNQFSLKLSSVTAADTAVYYCARAGKYYGSGSYLDYWGQGTLVTVSS
VL: not shown
notes: also called AX014H21-6-1
B6: AB-MN-21.5.2 (antibody, V domains shown)
VH: B5 VH with Q5E, E6Q, Y34R, V73I, K102T
VL: not shown
notes: also called 21.5.2 n; AX014H21-5-2
B7: AB-MN-XG1-080 (antibody, human IgG1, V domains shown)
VH: QVQLQESGPGLVKPSETLSLTCTVSGGSISSYYWSWIRQPPGKGLEWIGYIYYSGSTNYNPSLKSRVTISVDTSKNQFSLKLSSVTAADTAVYYCARDTRTIFGVVSGMDVWGQGTTVTVSS
VL: EIVLTQSPGTLSLSPGERATLSCRASQSVYSSYLAWYQQKPGQAPRLLIYGASSRAPGIPDRFSGSGSGTDFTLTISRLEPEDFAVYYCQHYGRSLTFGGGTKVEIK
notes: also called MN80
B8: AB-MN-XG1-141 (antibody, human IgG1, V domains shown)
VH: B7 VH with T23S, K75N, Q77H
VL: B7 VL with A25T, S28T, S32T, P57T, Y87F
notes: also called MN141
B9: AB-MN-21.2.1 (antibody, human IgG1, V domains shown)
VH: QVQLQESGPGLVKPSQTLSLTCTVSGGSISSGGYYWNWIRQHPGKGLEWIGYIYYSGSTYYNPSLKSRVTISVDTSKNQFSLKLSSVTAADTAVYYCARTYYDILTGYPDAFDIWGQGTMVTVSS
VL: DIQMTQSPSSLSASVGDRVTITCRASQDIRNDLGWYQQKPGKAPKRLICAASSLQSGVPSSFSGSGSGTEFTLTISSLQPEDFATYYCLQHNSYPWTFGQGTKVEIK
notes: also called AX014H21-2-1
B10: AB-MN-22.20 (antibody, human IgG2, V domains shown)
VH: B9 VH with Y34S, N37T, S58N
VL: B9 VL with D28G, C49Y, S61R, A84T, H91Y, N92K
notes: also called AX014H22-20
B11: AB-MN-XG1-023 (antibody, human IgG1, V domains shown)
VH: QVQLQESGPGLVKPSQTLSLTCTVSGGSISSGGYYWSWIRQHPGKGLEWIGYIYYSGSTYYNPSLKSRVTISVDTSKNQFSLKLSSVTAADTAVYYCARENYDILTGFNWFDPWGQGTLVTVSS
VL: DIQMTQSPSSVSASVGDRVTITCRASQGISSWLAWYQQKPGKAPKVLIYSTSRLQSGVPSRFSGSGSGTDFTLTISSLQPEDFATYYCQQADSFRTFGQGTKVEIK
notes: also called MN23; AB-MN-XG1-23
B12: AB-MN-XG1-051 (antibody, human IgG1, V domains shown)
VH: EVQLVEFGGGLVKPGGSLRLSCAASGFTFSSFRMNWVRQAPGEGLEWVSSITSSSSYIYYADSVKGRFTISRDNAKNSLYLQMNSLRAEDTAVYYCARFTAMALDYWGQGTLVTVSS
VL: DIQMTQSPSSLSASVGDRVTITCRASQGIFNYLAWYQQKPGKVPKLLIYAASTLQSGVPSRFSGSGSGTDFTLTISSLQPEDVAVYYCLKYNSAPWTFGQGTKVEIK
notes: also called MN51; AB-MN-XG1-51
B13: AB-MN-22.7 (antibody, human IgG2, V domains shown)
VH: QVQLVESGGGVVQPGRSLRLSCAASGFTFSSYGMHWVRQAPGKGLEWVAVISYDGSNKYYADSVKGRFTFSRDNSKNTLYLQMNSLRAEDTAVYYCARRGITMVRGAPSYYGMDVWGQGTTVTVSS
VL: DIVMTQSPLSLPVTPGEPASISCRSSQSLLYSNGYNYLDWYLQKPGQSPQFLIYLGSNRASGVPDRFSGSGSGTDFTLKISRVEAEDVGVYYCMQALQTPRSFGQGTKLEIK
notes: also called AX014H22-7
B14: AB-MN-22.8.1 (antibody, human IgG2, V domains shown)
VH: SGPGLVKPSETLSLTCTVSGGSISSYYWSWIRQPPGKGLEWIGYIYYSGSTNYNPSLKSRVTISVDTSKNQFSLKLTSVTAADTAVYYCARDQHSSSVYYYYYGMDVWGQGTTVTVSS
VL: ETQLTQSPGTLSLSPGERATLSCRASQSIYINYLAWYQQKPGQAPRLLISGASSRATGIPDRFSGSGSGTDFTLTISRLEPEDFAVYYCQQYGRSLTFGGGTEVEIKR
notes: also called AX014H22-8-1
B15: AB-MN-22.12 (antibody, human IgG2, V domains shown)
VH: QVQLQESGPGLVKPSETLSLTCTVSGGSISSYYWSWIRQPPGKGLEWIGYIYSSGSTNYNPSLKSRVTISVDTSKNQFSLKLSSVTAADTAVYYCARDQHSSSFYYYYYGMDVWGQGTTVTVSS
VL: B1 VL with I31S, T34A, I96L, Q100P, R103K, L104V, E105D
notes: also called AX014H22-12
B16: AB-MN-22.13.1 (antibody, human IgG2, V domains shown)
VH: RVQLVESGGGLVQPGGSLRLSCAASGFTFSRYSMNWVRQAPGKGLEWVSYISSSSSTIYYADSVKGRFTISRDSAKNSLYLQMNSLRDEDTAVYYCARSLRSGGMDVWGQGTTVTVSS
VL: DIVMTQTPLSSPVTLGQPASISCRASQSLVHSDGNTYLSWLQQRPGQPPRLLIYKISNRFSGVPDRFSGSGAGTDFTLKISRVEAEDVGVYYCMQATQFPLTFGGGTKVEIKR
notes: also called AX014H22-13-1
B17: AB-MN-22.14 (antibody, human IgG2, V domains shown)
VH: QVQLQESGPGLVKPSETLSLTCTVSGGSVISGGYYWSWIRQPPGKGLEWIGYIYYSGSSNYNPSLKSRVTISVDASKNQFSLRLSSVTAADTAVYYCARSMVRGVSFDYWGQGTLVTVSS
VL: B9 VL with D28G, C49Y, S61R, W96L, Q100G
notes: also called AX014H22-14
B18: AB-MN-22.15 (antibody, human IgG2, V domains shown)
VH: QVQLQESGPGLVKPSQTLSLTCTVSGGSISSGGYYWSWIRQHPGKGLEWIGYIYYSGYTYYNPSLKSRVTISVDTSKNQFSLKLSSVTAADTAVYYCARDRYYDILTGYYNYGMDVWGQGTTVTVSS
VL: not shown
notes: also called AX014H22-15
B19: AB-MN-22.17 (antibody, human IgG2, V domains shown)
VH: B1 VH
VL: B1 VL
notes: also called AX014H22-17
B20: AB-MN-22.18 (antibody, human IgG2, V domains shown)
VH: B9 VH
VL: B9 VL
notes: also called AX014H22-18
B21: AB-MN-22.19 (antibody, human IgG2, V domains shown)
VH: QVQLQESGPGLVKPSETLSLTCTVSGGSISFYYWNWIRQPAGKGLEWVGRIYTSGSTNYNPSLKSRVTMSVDTSKNQFSLKLSSVTAADTAVYYCARGGFLEWDYYYGMDVWGQGTTVTVSS
VL: B7 VL with Y30S, S31V, S32T, P57T, H91Q, R94S, L96V
notes: also called AX014H22-19
B22: AB-MN-22.25 (antibody, human IgG2, V domains shown)
VH: QLQLQESGPGLVKPSETLSLTCTVSDGSISSSSYYWGWIRQPPGKGLEWIGSIYYSGSTYYNPSLKSRVTISVDTSKNQFSLKLSSVTAADTAVYYCARHGSFFDYWGQGTLVTVSS
VL: B9 VL with D28G, C49Y, S61R, A84T, H91Y, N92K
notes: also called AX014H22-25
B23: AB-MN-22.28.1 (antibody, human IgG2, V domains shown)
VH: QVQLEQSGGGLVQPGGSLRLSCAASGFTFSSYAMSWVRQAPGKGLEWVSAISGSGGGTYYADSVKGRFTISRDNSKNTLYLQMNSLRAEDTAVYYCASGRYYYYYDMDVWGQGTTVTVSS
VL: B9 VL with Q3R, M4L, D28G, C49Y, S61R, W96L, Q100G
notes: the numbering there is inconsistent; also called AX014H22-28-1
B24: AB-MN-22.29 (antibody, human IgG2, V domains shown)
VH: QVQLQESGPGLVKPSETLSLTCTVSGGSISSYYWSWIRQPAGKGLEWIGRIYTSGSTNYNPSLKSRVTMSVDTSKNQFSLKLSSVTAADTAVYYCARDGQWLEDYGMDVWGQGTTVTVSS
VL: B1 VL with I31S, T34A, Y36F
notes: also called AX014H22-29
B25: AB-MN-22.30 (antibody, human IgG2, V domains shown)
VH: QVQLVESGGGVVQPGRSLRLSCAASGFTFSSYAMHWVRQAPGKGLEWVAVIWYDGSTKYYADSVKGRFTISRDNSKNTLYLQMNSLRAEDTAVYYCARDRGLLWFGELSPHYGMDVWGQGTTVTVSS
VL: B9 VL with D28G, C49Y, S61R, E70D, N92Y, W96L, Q100G
notes: also called AX014H22-30

The binders below were run against CA-IX-His-ECD (his-V5 tagged version of the CA IX protein, extracellular domain) (human, UniProt Q16790 38-414) (assay: ELISA on CA-IX-His-ECD).

Binder	OD [OD]
B1	1.64
B2	1.78
B3	0.059
B4	1.85
B5	0.618
B6	0.893
B7	2.71
B8	2.56
B9	1.21
B10	1.72
B11	2.22
B12	2.47
B13	0.097
B14	2.41
B15	2.38
B16	1.85
B17	0.763
B18	0.831
B19	2.16
B20	2.23
B21	2.12
B22	1.84
B23	0.404
B24	1.96
B25	2.2

Each binder was assayed against CA IX catalytic domain protein (CA9-CD) (human, UniProt Q16790 138-391) (assay: ELISA on CA9-CD (catalytic domain)).

Binder	OD [OD]
B1	2.5
B2	2.47
B4	2.66
B5	2.25
B6	2.43
B7	2.85
B8	2.56
B9	2.48
B10	2.71
B11	2.42
B12	2.88
B13	0.715
B14	2.77
B15	2.58
B16	0.118
B17	2.03
B18	2.53
B19	2.57
B20	2.75
B21	3.01
B22	2.48
B23	2.54
B24	2.52
B25	2.46
